{"source": "paper PMC3861103", "binders": {"B1": {"name": "MIS WT (dsDNA)", "DNA 1": "GATCCGCCAGGCACTGTCCCCCAAGGTCACCTTTGGTGTTGATAAGATCCC", "DNA 2": "TCGAGGGATCTTATCAACACCAAAGGTGACCTTGGGGGACAGTGCCTGGCG"}, "B2": {"name": "CYP11A1 (dsDNA)", "DNA 1": "ACATTTTATCAGCTTCTGGTATGGCCTTGAGCTGGTAGTTATAATCTTGGC", "DNA 2": "GCCAAGATTATAACTACCAGCTCAAGGCCATACCAGAAGCTGATAAAATGT"}, "B3": {"name": "2xNR5RE WT (dsDNA)", "DNA 1": "CTAAAGGGAGCCAAGGTCATAGCGGCCAGTCAAGGCCAAGGGCGACAG", "DNA 2": "CTGTCGCCCTTGGCCTTGACTGGCCGCTATGACCTTGGCTCCCTTTAG"}}, "key": {"[1]": {"biological_target": "T1, 6xHis-MBP-NHR-25 DBD (unmodified) (Caenorhabditis elegans, UniProt Q19345 1-173)", "T1 sequence": "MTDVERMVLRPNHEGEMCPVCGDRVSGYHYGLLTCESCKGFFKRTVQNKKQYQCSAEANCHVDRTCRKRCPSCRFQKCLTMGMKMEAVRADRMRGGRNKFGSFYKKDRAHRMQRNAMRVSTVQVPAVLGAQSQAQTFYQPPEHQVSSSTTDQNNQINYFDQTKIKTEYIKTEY", "assay": "EMSA; 500 nM protein, 1 uM DNA; 50 mM Tris pH 8.0, 150 mM NaCl, 10 mM MgCl2, 10 mM DTT, 10 mM ATP, 400 ug/ml BSA, 1 uM dsDNA, 500 nM protein (200-700 nM titration), room temperature 30 min; 4-20% TBE gel, SYBR Gold", "details": "protein: recombinant, tags: N-terminal 6xHis-MBP"}, "[2]": {"biological_target": "T1, 6xHis-MBP-NHR-25 DBD (unmodified)", "assay": "EMSA; 1 uM DNA; 50 mM Tris pH 8.0, 150 mM NaCl, 10 mM MgCl2, 10 mM DTT, 10 mM ATP, 400 ug/ml BSA, 1 uM dsDNA, 500 nM protein (200-700 nM titration), room temperature 30 min; 4-20% TBE gel, SYBR Gold", "details": "protein: recombinant; tags: N-terminal 6xHis-MBP; blunt"}}, "data": [{"binder": "B1", "values": [{"measurement": "binding result", "setting": "[1]; 5' overhangs 4 nt on both strands", "value": "binds"}]}, {"binder": "B2", "values": [{"measurement": "binding result", "setting": "[1]; blunt", "value": "binds"}]}, {"binder": "B3", "values": [{"measurement": "binding result", "setting": "[2]", "value": "binds"}]}]}
